Laboratory results as given in US20130288266A1 (ROCHE DIAGNOSTICS OPERATIONS, published 2013).
Several values for one entry are separate records, joined by “and”; a condition that tells them apart may be missing. Identical values can stand only once.

Columns and labels:
[1] = biological target: T1, IGF-1R(1340-1366)[1346-pTyr]amid, phosphorylated IGF-1R peptide (phosphotyrosine at 1346 (IGF-1R numbering); C-terminal amide; in Examples 2.6 and 2.7 a biotinylated PEG-linker bound via glutamic acid at position 1340); assay: SPR (Biacore 3000, SA sensor, 25 C): both ssFab' hybridized on the immobilized biotinylated T40-Bi linker, peptide injected as analyte
T1 construct: also called pIGF-1R peptide; pIGF-1R
T1 peptide: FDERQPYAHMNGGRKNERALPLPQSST
Method: (§1) As a control, buffer was injected instead of the ssFabs.
(§2) The system was regenerated after each concentration step with a 12 sec pulse of 250 mM NaOH and was reloaded with ssFab′ ligand.

[2] = biological target: T2, IGF-1R(1340-1366)amid, non-phosphorylated IGF-1R peptide (C-terminal amide; in Example 2.6 a biotinylated PEG-linker bound via glutamic acid at position 1340); assay: as above
T2 construct: also called Glu(Bi-PEG-1340]amid
T2 peptide: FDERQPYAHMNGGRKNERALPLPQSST
Method: as §1, §2

[3] = biological target: T1, IGF-1R(1340-1366)[1346-pTyr]amid, …; assay: SPR (Biacore 3000, 25 C), dual binder on biotinylated linker on SA chip, peptide injected; T40 linker (linker 10, spacer T20-Biotin-dT-T20)
[4] = biological target: T1, IGF-1R(1340-1366)[1346-pTyr]amid, …; assay: SPR (Biacore 3000, SA sensor, 25 C): only ssFab' 1.4.168 hybridized on the immobilized biotinylated T40-Bi linker, peptide injected as analyte
Method: as §1, §2

[5] = biological target: T2, IGF-1R(1340-1366)amid, …; assay: as above
Method: as §1, §2

[6] = biological target: T1, IGF-1R(1340-1366)[1346-pTyr]amid, …; assay: SPR (Biacore 3000, SA sensor, 25 C): only ssFab' 1.4.168 hybridized on the immobilized biotinylated T0-Bi linker, peptide injected as analyte
Method: as §1, §2

[7] = biological target: T2, IGF-1R(1340-1366)amid, …; assay: as above
Method: as §1, §2

[8] = biological target: T3, phosphorylated IR in IR overexpressing 3T3 cells stimulated with Insulin (UniProt P06213 28-1382, limits assumed, phosphorylated after stimulation with 100 ng/ml Insulin); assay: IHC (Ventana BenchMark XT), ssFab' on 8xC18 linker, FFPE 3T3 cells
T3 construct: whole, on cells; also called pIR (cells)
Method: (§3) In order to test the specificity of the anti-pIGF-1R dual binder molecule an elaborate test system based on formalin-fixed paraffin-embedded (FFPE) 3T3 cells was used. 3T3 cells had been stably transfected with either IGF-1R or IR expression vectors. Cells were fixed with formalin and embedded in paraffin according to standard protocols. Prior to fixation cells were stimulated with 100 ng/ml of either IGF-1 or Insulin to induce IGF1-R or IR phosphorylation or were left untreated.
(§4) A biotin label within the linker molecule served as a detection tag for the streptavidin-based Ventana iVIEW DAB detection kit.

[9] = biological target: T4, IR (insulin receptor) in untreated IR overexpressing 3T3 cells (UniProt P06213 28-1382, limits assumed); assay: as above
T4 construct: whole, on cells; also called IR (unstimulated)
Method: as §3, §4

[10] = biological target: T1, IGF-1R(1340-1366)[1346-pTyr]amid, …; assay: SPR (Biacore 2000, 25 C), biotinylated peptide on SA chip, 100 nM ssFab' injected
Method: (§5) 100 nM of analyte (i.e. in these experiments a bi-valent dual binding agent) in solution was injected at 50 μl/min for 240 sec association time and dissociation was monitored for 500 sec. Efficient regeneration was achieved by using a 1 min injection step at 50 μl/min with 80 mM NaOH. Flow cell 1 served as a reference. A blank buffer injection was used instead of an antigen injection to double reference the data by buffer signal subtraction.
(§6) (The digoxigenylation of the middle thymidine (T(-Dig)) in the above linkers is without relevance to these experiments.)
(§7) Report points were set at the end of the analyte association phase (Binding Late, BL) and at the end of the analyte dissociation phase (Stability Late, SL) to monitor the response unit signal heights of each interaction. The dissociation rates kd (1/s) were calculated according to a linear 1:1 Langmuir fit using the Biacore™ evaluation software 4.1. The complex halftimes in minutes were calculated upon the formula In(2)/(60*kd).

[11] = biological target: T2, IGF-1R(1340-1366)amid, …; assay: as above
Method: as §5, §6, §7

[12] = biological target: T1, IGF-1R(1340-1366)[1346-pTyr]amid, …; assay: SPR (Biacore 3000, SA sensor, 25 C): only ssFab' 1.4.168 hybridized on the immobilized biotinylated 8xC18 linker, pIGF-1R peptide injected as analyte
Method: (§8) 89 RU amino-PEO-biotin were captured on the reference flow cell 1.
(§9) The system was regenerated after each concentration step with a 12 sec pulse of 250 mM NaOH and was reloaded with ssFab ligand.

[13] = biological target: T1, IGF-1R(1340-1366)[1346-pTyr]amid, …; assay: SPR (Biacore 3000, SA sensor, 25 C): both ssFab' hybridized on the immobilized biotinylated T0-Bi linker, peptide injected as analyte
Method: as §1, §2

[14] = biological target: T2, IGF-1R(1340-1366)amid, …; assay: as above
Method: as §1, §2

[15] = biological target: T1, IGF-1R(1340-1366)[1346-pTyr]amid, …; assay: SPR (Biacore 3000, 25 C), dual binder on biotinylated linker on SA chip, peptide injected; T0 linker (no spacer)
[16] = biological target: T3, phosphorylated IR in IR overexpressing …; assay: IHC (Ventana BenchMark XT), FFPE 3T3 cells
Method: as §3, §4

[17] = biological target: T4, IR (insulin receptor) in untreated IR …; assay: IHC (Ventana BenchMark XT), FFPE 3T3 cells
Method: as §3, §4

[18] = biological target: T1, IGF-1R(1340-1366)[1346-pTyr]amid, …; assay: SPR (Biacore 3000, 25 C)
[19] = biological target: T1, IGF-1R(1340-1366)[1346-pTyr]amid, …; assay: SPR (Biacore 3000, SA sensor, 25 C): both ssFab' hybridized on the immobilized biotinylated 8xC18 linker, pIGF-1R peptide injected as analyte
Method: as §8, §9

[20] = biological target: T1, IGF-1R(1340-1366)[1346-pTyr]amid, …; assay: SPR (Biacore 3000, 25 C), ssFab's on biotinylated 8xC18 linker on SA chip, pIGF-1R peptide injected
Method: as §9

[21] = biological target: T1, IGF-1R(1340-1366)[1346-pTyr]amid, …; assay: SPR sandwich assay (Biacore T100, 13 C), FIG. 7
Method: A Biacore™ T100 instrument (GE Healthcare) was used with a Biacore™ CM5 sensor mounted into the system. The sensor was preconditioned by a 1 min injection at 100 μl/min of 0.1% SDS, 50 mM NaOH, 10 mM HCl and 100 mM H3PO4.
The Biacore™ T100 System was driven under the control software V1.1.1. Polyclonal rabbit IgG antibody <IgGFCγM>R (Jackson ImmunoResearch Laboratories Inc.) at 30 μg/ml in 10 mM Na-Acetate pH 4.5 was immobilized at 10 000 RU on the flow cells 1, 2, 3, and 4, respectively, via EDC/NHS chemistry according to the manufacturer's instructions. Finally, the sensor surface was blocked with 1M ethanolamine. The complete experiment was driven at 13° C.
3 μM of an IgG fragment mixture (of IgG classes IgG1, IgG2a, IgG2b, IgG3) containing blocking solution was injected at 30 μl/min for 5 min.

[22] = biological target: T5, human_HER3(1242-1267)-Bi-PEG-amide (human, C-terminal Bi-PEG-amide (biotin); singly grafted on streptavidin); assay: SPR kinetic screening (Biacore A100), mAb captured by anti-mouse IgG Fc, peptide singly grafted on streptavidin injected
T5 construct: Injected as analyte, singly grafted on streptavidin
T5 peptide: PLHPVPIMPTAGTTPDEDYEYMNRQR
Method: A Biacore™ A100 instrument under control of the software version V1.1 is used. A Biacore™ CM5 chip is mounted into the instrument and is hydrodynamically addressed conditioned according to the manufacturer's instructions. As a running buffer an HBS-EP buffer is used (10 mM HEPES (pH 7.4), 150 mM NaCl, 1 mM EDTA, 0.05% (w/v) P20). A polyclonal rabbit anti-mouse IgG Fc capture antibody is immobilized at 30 μg/ml in 10 mM sodium acetate buffer (pH 4.5) to spots 1, 2, 4 and 5 in flow cells 1, 2, 3 and 4 at 10,000 RU. The antibody is covalently immobilized via NHS/EDC chemistry. The sensor is deactivated thereafter with a 1 M ethanolamine solution. Spots 1 and 5 are used for the determination and spots 2 and 4 are used as reference. Prior to application to the sensor chip the hybridoma supernatants containing mAbs are diluted 1:2 in HBS-EP buffer. The diluted solution is applied at a flow rate of 30 μl/min for 1 min. […] Thereafter, the signal is recorded for 5 min dissociation time. The sensor is regenerated by injecting a 10 mM glycine-HCl solution (pH 1.7) for 2 min, at a flow rate of 30 μl/min. The dissociation rate constant kd (1/s) is calculated according to a Langmuir model using the evaluation software according to the manufacturer's instructions.

[23] = biological target: T6, IGF-1R in untreated IGF-1R overexpressing 3T3 cells (UniProt P08069 31-1367, limits assumed); assay: IHC (Ventana BenchMark XT), ssFab' on 8xC18 linker, FFPE 3T3 cells
T6 construct: whole, on cells; also called IGF-1R (unstimulated)
T6 sequence (P08069 31-1367 limits assumed): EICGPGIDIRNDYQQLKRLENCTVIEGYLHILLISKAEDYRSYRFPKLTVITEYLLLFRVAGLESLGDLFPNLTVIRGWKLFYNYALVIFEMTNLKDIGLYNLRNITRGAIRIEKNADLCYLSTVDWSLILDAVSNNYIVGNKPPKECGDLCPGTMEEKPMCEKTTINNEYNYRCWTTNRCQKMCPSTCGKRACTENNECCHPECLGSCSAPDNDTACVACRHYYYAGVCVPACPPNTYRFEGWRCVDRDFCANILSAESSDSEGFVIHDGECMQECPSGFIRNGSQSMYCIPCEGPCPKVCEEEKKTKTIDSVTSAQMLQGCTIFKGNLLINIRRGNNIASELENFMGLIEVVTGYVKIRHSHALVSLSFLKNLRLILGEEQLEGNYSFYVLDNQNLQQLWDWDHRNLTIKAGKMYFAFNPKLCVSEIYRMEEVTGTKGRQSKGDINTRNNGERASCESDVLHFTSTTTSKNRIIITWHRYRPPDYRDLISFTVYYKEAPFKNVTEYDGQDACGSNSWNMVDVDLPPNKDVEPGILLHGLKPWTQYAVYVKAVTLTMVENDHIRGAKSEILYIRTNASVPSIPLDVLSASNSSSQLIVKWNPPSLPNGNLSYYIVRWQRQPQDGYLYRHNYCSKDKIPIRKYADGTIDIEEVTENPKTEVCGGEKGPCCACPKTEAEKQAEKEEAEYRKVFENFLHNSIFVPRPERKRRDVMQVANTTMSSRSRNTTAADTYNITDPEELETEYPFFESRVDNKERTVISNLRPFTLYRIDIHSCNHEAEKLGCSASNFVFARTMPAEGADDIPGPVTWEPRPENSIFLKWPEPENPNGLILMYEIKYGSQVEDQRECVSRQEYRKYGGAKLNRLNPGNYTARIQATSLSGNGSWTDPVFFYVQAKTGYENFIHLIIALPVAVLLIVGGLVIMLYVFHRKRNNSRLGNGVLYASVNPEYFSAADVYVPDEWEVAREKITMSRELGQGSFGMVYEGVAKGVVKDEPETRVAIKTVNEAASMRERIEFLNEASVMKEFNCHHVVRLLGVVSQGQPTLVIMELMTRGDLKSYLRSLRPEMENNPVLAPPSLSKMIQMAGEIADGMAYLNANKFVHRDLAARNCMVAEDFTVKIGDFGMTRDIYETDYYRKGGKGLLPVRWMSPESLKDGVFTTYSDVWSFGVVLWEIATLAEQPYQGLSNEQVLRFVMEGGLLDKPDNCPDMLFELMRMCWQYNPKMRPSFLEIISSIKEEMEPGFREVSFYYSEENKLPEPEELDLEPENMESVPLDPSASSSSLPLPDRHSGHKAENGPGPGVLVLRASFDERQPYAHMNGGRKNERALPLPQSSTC
Method: as §3, §4

T3 sequence (P06213 28-1382 limits assumed): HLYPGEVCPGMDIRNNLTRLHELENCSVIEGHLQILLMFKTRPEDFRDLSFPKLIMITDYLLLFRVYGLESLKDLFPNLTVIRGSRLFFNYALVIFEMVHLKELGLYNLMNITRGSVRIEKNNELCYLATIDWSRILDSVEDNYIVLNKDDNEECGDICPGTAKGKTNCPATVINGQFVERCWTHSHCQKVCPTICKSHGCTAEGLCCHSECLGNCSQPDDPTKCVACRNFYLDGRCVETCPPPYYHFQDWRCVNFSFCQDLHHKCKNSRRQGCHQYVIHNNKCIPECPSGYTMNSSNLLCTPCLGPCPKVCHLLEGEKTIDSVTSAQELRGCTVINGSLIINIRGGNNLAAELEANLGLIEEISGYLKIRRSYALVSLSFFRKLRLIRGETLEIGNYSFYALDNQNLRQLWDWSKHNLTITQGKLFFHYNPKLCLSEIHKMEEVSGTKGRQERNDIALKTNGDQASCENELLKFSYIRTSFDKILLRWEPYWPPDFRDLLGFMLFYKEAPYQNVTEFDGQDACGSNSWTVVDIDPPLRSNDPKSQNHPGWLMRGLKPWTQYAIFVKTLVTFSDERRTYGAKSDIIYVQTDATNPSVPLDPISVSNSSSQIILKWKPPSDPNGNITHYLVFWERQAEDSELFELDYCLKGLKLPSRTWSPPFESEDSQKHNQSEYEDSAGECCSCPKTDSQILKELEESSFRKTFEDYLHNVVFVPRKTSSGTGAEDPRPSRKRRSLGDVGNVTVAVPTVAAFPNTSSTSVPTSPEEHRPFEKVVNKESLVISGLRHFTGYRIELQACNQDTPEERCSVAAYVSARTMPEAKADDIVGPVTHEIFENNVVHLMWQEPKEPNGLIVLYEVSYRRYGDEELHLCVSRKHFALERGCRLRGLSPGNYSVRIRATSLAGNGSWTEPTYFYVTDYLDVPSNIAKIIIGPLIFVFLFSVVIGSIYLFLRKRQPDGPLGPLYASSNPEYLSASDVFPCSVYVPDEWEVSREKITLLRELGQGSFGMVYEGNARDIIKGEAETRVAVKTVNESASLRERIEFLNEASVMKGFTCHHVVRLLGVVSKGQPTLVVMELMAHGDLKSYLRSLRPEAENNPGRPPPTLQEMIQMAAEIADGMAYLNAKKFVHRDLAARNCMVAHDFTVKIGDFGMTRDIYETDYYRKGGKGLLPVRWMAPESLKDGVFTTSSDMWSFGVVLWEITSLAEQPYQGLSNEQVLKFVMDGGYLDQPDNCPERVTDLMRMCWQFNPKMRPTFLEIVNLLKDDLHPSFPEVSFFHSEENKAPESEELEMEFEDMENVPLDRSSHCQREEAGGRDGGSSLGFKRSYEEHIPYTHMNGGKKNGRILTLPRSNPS
T4 sequence (P06213 28-1382 limits assumed): as above

B1: T40-T-Bi linker dual binder with ssFab' 8.1.2 and ssFab' 1.4.168 (linker 10 of example 2.4) (bispecific antibody, V domains shown)
VH 1: EVQLQQSGPALVKPGASVKMSCKASGFTFTSYVIHWVKQKPGQGLEWIGYLNPYNDNTKYNEKFKGKATLTSDRSSSTVYMEFSSLTSEDSAVYFCARRGIYAYDHYFDYWGQGTSLTVSS
VL 1: QIVLTQSPAIMSASPGEKVTLTCSASSSVNYMYWYQQKPGSSPRLLIYDTSNLASGVPVRFSGSGSVTSYSLTISRMEAEDAATYYCQQWSTYPLTFGAGTKLELK
VH 2: QCDVKLVESGGGLVKPGGSLKLSCAASGFTFSDYPMSWVRQTPEKRLEWVATITTGGTYTYYPDSIKGRFTISRDNAKNTLYLQMGSLQSEDAAMYYCTRVKTDLWWGLAYWGQGTLVTVSA
VL 2: QLVLTQSSSASFSLGASAKLTCTLSSQHSTYTIEWYQQQPLKPPKYVMELKKDGSHTTGDGIPDRFSGSSSGADRYLSISNIQPEDESIYICGVGDTIKEQFVYVFGGGTKVTVLG
modifications: 17 mer ssDNA (SEQ ID NO:6, fluorescein) on hinge cysteine; 19 mer ssDNA (SEQ ID NO:5, Cy5) on hinge cysteine
notes: Two Fab'-ssDNA conjugates hybridised on biotinylated 77-mer DNA linker 10 (T20-Biotin-dT-T20) captured on a streptavidin chip; also called T40-Bi
[1]
  Kd: 0.0125 nM
[2]
  Kd: 0.973 nM and 1 nM
  t1/2 diss: 4.3 min
[3]
  Kd: 0.01 nM

B2: ssFab' 1.4.168 (Fab' of mAb 1.4.168 covalently linked to 17 mer ssDNA) (Fab, V domains shown)
VH: DVKLVESGGGLVKPGGSLKLSCAASGFTFSDYPMSWVRQTPEKRLEWVATITTGGTYTYYPDSIKGRFTISRDNAKNTLYLQMGSLQSEDAAMYYCTRVKTDLWWGLAYWGQGTLVTVSA
VL: B1 VL 2
modifications: 17 mer ssDNA comprising SEQ ID NO:6 with fluorescein, coupled through maleimide to a cysteine of the Fab' hinge region
notes: Fab' from pepsin cleavage and cysteamine reduction of a murine monoclonal IgG; also called ssFab' 1.004.168; fluorescein-ssFab' 1.4.168
[4]
  Kd: 2.14 nM and 2 nM
[5]
  Kd: 1.1 nM and 1 nM
  t1/2 diss: 3 min
[6]
  Kd: 2.59 nM and 3 nM
  t1/2 diss: 4 min
[7]
  Kd: 1.35 nM and 1 nM
  t1/2 diss: 4 min
[8]
  binding result: no binding (tested: 0.5 µg/ml)
[9]
  binding result: no binding (tested: 0.5 µg/ml)
[10]
  T1/2 dis: 3 min
[11]
  T1/2 dis: 3 min
[12]
  Kd: 2.96 nM and 3 nM

B3: T0 dual binding agent with ssFab' 8.1.2 and ssFab' 1.4.168 on the biotinylated T0-Bi 37-mer ssDNA-Linker (linker 17 of example 2.4) (bispecific antibody, V domains shown)
VH 1: B1 VH 1
VL 1: B1 VL 1
VH 2: B1 VH 2
VL 2: B1 VL 2
modifications: 17 mer ssDNA (SEQ ID NO:6, fluorescein) on hinge cysteine; 19 mer ssDNA (SEQ ID NO:5, Cy5) on hinge cysteine
[13]
  Kd: 0.0344 nM
[14]
  Kd: 1.2 nM and 1 nM
  t1/2 diss: 5 min
[15]
  Kd: 0.03 nM

B4: anti-pIGF-1R dual binder composed of ssFab' 1.4.168, ssFab' 30.4.33 and an 8xC18 linker molecule (linker 14 of example 2.4) (bispecific antibody, V domains shown)
VH 1: EVQLQESGPEVAKPGASVKMSCKASGYTFTDYIIHWVKQRPGQDLEWIGYINPYNDKSKYNEKFKDKATLTSDRSSSTSYMDLSTLTSDDSAVYYCTRHGYYRSDGFDYWGQGTTLTVSS
VL 1: DIVLTQSPTIMSASPGEKVTMTCRASSSVSSSSLHWYQQKPGSSPKLWIYSTSTLASGVPARFSGSGSGTSYSLTISGVETEDAATYYCQQYGTSPYTFGSGTKVDIK
VH 2: B1 VH 2
VL 2: B1 VL 2
modifications: 17 mer ssDNA (SEQ ID NO:6) on hinge cysteine; ssDNA oligonucleotide on the Fab' hinge region
notes: Two Fab'-ssDNA conjugates hybridised on biotinylated linker 14 ((Spacer C18)4-(Biotin-dT)-(Spacer C18)4)
[16]
  binding result: no binding (tested: 0.5 µg/ml per ssFab')
[17]
  binding result: no binding (tested: 0.5 µg/ml per ssFab')
[18]
  fold affinity improvement compared to ssFab' 1.4.168 alone: 300 fold
  fold affinity improvement compared to ssFab' 30.4.33 alone: 200 fold
  fold lower off-rate than ssFab' 1.4.168: 230 fold
  fold lower off-rate than ssFab' 30.4.33: 110 fold
[19]
  Kd: 0.0112 nM and 0.011 nM
  kon: 1.24e+06 M⁻¹ s⁻¹
[20]
  Kd: ~0.01 nM
  koff: 1.39e-05 s⁻¹

B5: murine monoclonal antibody M-1.4.168-IgG (antibody, V domains shown)
VH: B2 VH
VL: B1 VL 2
notes: Whole murine IgG from hybridoma; also called mAb 1.4.168; M-1.004.168-IgG
[21]
  binding result: binds

B6: monoclonal antibody 7.2.32 directed against HER3(1242-1267) (antibody, V domains shown)
VH: EVQLQESGGGLVQPKGSLQLSCAASGFTFNTYAMHWVRQAPGKGLEWVARIRTESSDYATDYADSVKDRFIISRDDSQNMLYLQMNNLKSEDTAIYYCVRSSGFDYWGQGTTLTVSS
VL: DIQMTQSPSLPVSLGDQASISCRSSQSLVHDNGNTYLHWFLQKPGQSPKLLIYKVSNRFSGVPDRFGGSGSGTDFTLKISGVEAEDLGVYFCSQGTHVPTFGGGTKLEIK
notes: Mouse monoclonal IgG from hybridoma supernatant, captured by anti-mouse IgG Fc; also called mAb 7.2.32
[22]
  koff: 0.0023 s⁻¹

B7: ssFab' 30.4.33 (Fab' of mAb 30.4.33 linked to ssDNA) (Fab, V domains shown)
VH: B4 VH 1
VL: B4 VL 1
modifications: ssDNA oligonucleotide coupled to the Fab' hinge region
[8]
  binding result: no binding (tested: 0.5 µg/ml)
[9]
  binding result: no binding (tested: 0.5 µg/ml)
[23]
  binding result: no binding (tested: 0.5 µg/ml)
